# In patent US8209131B2, “Therapeutic heparins and their binding to interleukins 4 and 5 and PECAM-1” (Curtin University of Technology, priority 2004, dated 2012):
# B1: K21A: IL-4 mutant, baculovirus expressed (protein)
# chain: HKCDITLQEIIKTLNSLTEQATLCTELTVTDIFAASKNTTEKETFCRAATVLRQFYSHHEKDTRCLGATAQQFHRHKQLIRFLKRLDRNLWGLAGLNSCPVKEANQSTLENFLERLKTIMREKYSKCSS
# Legend:
# TF1.8 cells = test: TF1.8 bioassay of IL-4 mutants (support of proliferation); format: cell-based, human; settings: IL-4 wt and mutants, TF1.8 cells
# Procedure: TF-1.8 cells have been transfected with the firefly luciferase gene contained in the expression vector, pPGK-puromycin-luciferase (Coombe et al., 1998, Supra). The positive transfectants are cloned to produce a line with good luciferase expression. The proliferation assays are carried out in 96-well microplates suitable for such assays Falcon). The wells are flat bottomed, with white sides and a clear bottom. Cells are washed to remove any cytokine in the growth medium and then resuspended in RPMI/5% w/v FCS. The cells are counted with a Coulter Multisizer (Coulter Electronics, England) and routinely 2.5×10^4 cells are added to microplate wells that contain either no IL-4 (negative control) or various dilutions of IL-4. When the effect of HLGAGs, chondroitin sulfate C, or the heparin fractions of a particular length, or heparin fragments of a particular length and structure is to be measured, the wells also contain various concentrations of these molecules.
# The cells proliferate for 48 hours at 37° C. in a humidified atmosphere, after which the luciferase activity is measured by the addition of 50 μl of luciferase substrate buffer (50 mm Tris-HCl, pH 7.8, 15 mM MgSO4, 33.3 mM DTT, 0.1 mM EDTA, 0.5 mM Na-luciferin, 0.5 mM ATP, 0.25 mM lithium Co A and 0.5% v/v Triton X-100). Immediately after the addition of the luciferase buffer the plate is assayed for luciferase activity. Light emissions are detected on a Victor 1420 Multilabel counter (Wallac, Turku, Finland).
# IL-4 mutants were compared with WT for their ability to support the proliferation of TF1.8 cells. Titration curves were performed for each of the mutants and the concentration needed to support 50% of cell growth was determined.
# [1] = BIAcore binding of proteins to heparin immobilised on a biosensor chip; settings: IL-4 WT and mutants binding to heparin
# From the text: This technology uses the optical phenomenon of surface plasmon resonance to monitor physical interactions between molecules. Passing the protein solution over a sensor surface to which the ligand is coupled monitors the real-time binding of proteins to an immobilized ligand. Detection is achieved by measuring refractive index changes very close to the sensor surface. When the refractive index is altered, the angle at which plasmon resonance occurs changes and this change directly correlates with the amount of protein interacting with the surface. A BIAcore 2000 is conveniently used. It is very sensitive and its microfluidics ensures that only small amounts of material are required.
# The HLGAGs are immobilized on the biosensor chip. Intact HLGAGs are biotinylated via amino groups, or reducing termini modified with ammonia by reductive amination, using sulfo-NHS-biotin. Biotinylated HLGAGs are immobilized on streptavidin-coupled sensor chips. Solutions containing proteins of interest are injected over the sensor chip surface, and the binding is measured in real time (Fernig, In: Proteoglycan protocols, Ed. R.V. Iozzo, Humana Press, Totowa, N.J., USA, 2001). […] In all cases binding is specific, as there is little or no interaction with sensor chips lacking heparin with any of the targeted proteins, and binding is inhibited by exogenous heparin. Initial analyzes indicate that the binding of rhIL-5 to heparin has affinity constants of the order from 50-5×10^−9. Because unsubstituted amines are variably present in heparan sulfates from different tissues, an alternative method of biotin labeling is recommended for the heparan sulfate chip. In this case, heparan sulfate is labeled via oxidized cis-diol residues using biotinyl-LC-hydrazine. […]
# Binding experiments with these proteins has indicated to which PECAM-1 domains heparin binds. Two binding assays were used: the assay where PECAM-1 is reacted with a BIAcore biosensor chip to which heparin has been immobilised and the second assay is the binding of PECAM-1 to heparan sulfate on the cell surface.
# Site directed mutagenesis was performed on IL-4. Basic residues within the proposed heparin binding site were changed to alanine and the proteins expressed using the baculovirus expression system. The one exception was R88 which was changed to valine. Insect cell expressed proteins were purified on an anti-IL-4 affinity column and checked for purity by SDS-PAGE and silver staining. Mutant IL-4 proteins were examined for their ability to bind heparin immobilised on a biosensor chip and binding assessed using a BIAcore 2000.
molecule,measurement,setting,value
B1,"Conc needed for 50% growth, average",TF1.8 cells,1.36 ng/mL
same,ka,[1]; in M-1s-1 (unit assumed),4.86E+04
same,kd,[1]; in s-1 (unit assumed),2.53E−03
same,Kd,[1]; read-out: KD,52.1 nM
